We go through two sequences from patent US5792640.

For data set [1], the target named is ZF-Sp1C (synthetic construct) (UniProt P08047). The data set can be described thus: EMSA. The note with it: CITED ref 34; DNA-RNA hybrid; cited from earlier work.
The subject of data set [2] is ZF-QQR-FN (consensus zinc fingers-FokI cleavage domain fusion) (synthetic construct). Briefly: cleavage_in_vitro. The note with it: DNA strand cleaved, ~100-fold slower than duplex; RNA strand not cleaved.
For data set [3], the system named is ZF-QQR (synthetic construct). Briefly: EMSA. The note with it: CITED ref 34; exact hybrid used in cited work not given; cited from earlier work. A general note: A gel shift assay detects complexes by their altered migration in electrophoresis.
In data set [4] the test system is ZF-QQR-FN (consensus zinc fingers-FokI cleavage domain fusion) (synthetic construct). Briefly: EMSA. The note with it: apparent Kd.

ZF-Sp1C (synthetic construct), sequence (P08047 626-708): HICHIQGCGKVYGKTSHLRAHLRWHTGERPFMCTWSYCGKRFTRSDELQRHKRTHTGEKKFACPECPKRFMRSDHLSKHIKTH

Regarding GGGGCGGGG [Sp1C site DNA-RNA hybrid], the Kd in data set [1] was 40 nM.

For “GAGCTCCTTTGGATCCAAGCTTCCCGGGGAAGAATTCGAGGAGGCTCTCGAGGTCGACTTCCTCTAGAGGTACC / GGUACCUCUAGAGGAAGUCGACCUCGAGAGCCUCCUCGAAUUCUUCCCCGGGAAGCUUGGAUCCAAACCAGCUC [QQR site DNA-RNA hybrid]”, the activity in data set [2] was 1%. Moreover, the Kd in data set [3] is 2.8 nM; in data set [4], 3 nM.
